Common to all, as to format: cell-based
The test system of series [1] is human eosinophils. As to the kind of experiment: Antagonist activity using shape change of human eosinophils as index (Example 19). Conditions: DKPGD2 0.1-1000 nM, FIG. 16. On the procedure:
Eosinophils were separated from human peripheral blood in the same manner as in Example 11. The isolated human eosinophils were suspended with Dulbecco's phosphate buffered saline (hereinafter, referred to as D-PBS (−)) (NACALAI TESQUE, Inc.) and performed a reaction in a 5% CO2 incubator at 37° C. for 1 hour and 30 minutes. Thereafter, the cells were seeded in a 96-well plate at 2×10^5 cells/well using 10% FBS-containing RPMI1640. Next, an isotype control antibody [CELL LAB Rat IgG2b Isotype Control (Beckman Coulter Inc.)] at a final concentration of 10 μg/mL or Lym2 antibody; or small molecular CRTH2 antagonist 00000459 (Cayman Chemical) at a final concentration of 10 μM as a positive control, was added thereto to cause a reaction in a 5% CO2 incubator at 37° C. for 30 minutes.
Next, DKPGD2 (Cayman Chemical) at each of final concentrations of 0.1, 1, 10, 100, and 1000 nM was added thereto to cause a reaction in a 5% CO2 incubator at 37° C. for 60 minutes. After the reaction, the cells were washed twice with ice-cold PBS, Fixation Buffer (BD Biosciences) was added at 200 μL/well, and the resultant was suspended well and allowed to stand at 4° C. for 30 minutes. After that, the cells were washed twice with SM, and shape change of eosinophils was analyzed by flow cytometry (BD Biosciences, FACS CantoII).
The shape change of eosinophils was analyzed based on an increase in Forward Scatter Light (FSC) plot which is an index of the cell size, the cell surface area, or the cell diameter in the analysis using flow cytometry and the percentage (%) of eosinophils detected in the gate of high FSC was calculated based on the FSC of DKPGD2-untreated eosinophils.

The test system of series [2] is human eosinophils. As to the kind of experiment: Eosinophil depletion (cytotoxic) activity in human peripheral blood cells, flow cytometry. The following applies: Example 8; 0.01-1000 ng/mL, 37° C., 20 hours; FIG. 3. On the procedure: (§1) Human peripheral blood collected by adding a heparin sodium injection liquid was centrifuged at 4° C. and 1500 rpm for 30 minutes, and the plasma was recovered.
(§2) After the plasma was recovered, PBS (NACALAI TESQUE, Inc.) was added to the pellet containing the red blood up to the original volume of blood and the pellet was suspended. Next, to 1 mL of the suspension, 10 mL of hemolyzing solution [solution obtained by diluting 10×RBC Lysis buffer (eBioscience) 10 times with sterile water] was added to be mixed by inversion. The resultant was allowed to stand at room temperature for 10 minutes and centrifuged at room temperature and 1500 rpm for 5 minutes and washed twice with PBS after the supernatant was removed therefrom.
(§3) Thereafter, the cell pellet was suspended with the recovered plasma and the cells were seeded in a 48-well plate at 300 μL/well, each of chLym2, humanized Lym2 antibodies LV0HV0, LV0HV1, and LV0HV2a, or an isotype control antibody [IgG1 antibody prepared according to the method described in Example 5 using a vector encoding an anti-2,4-dinitrophenol (DNP) IgG1 antibody described in Clin Cancer Res 2005, 11(8), 3126 to 3135 (hereinafter, referred to as anti-DNP IgG1 antibody)] were added at each final concentrations of 1000, 100, 33, 11, 3.7, 1.2, 0.4, and 0.01 ng/mL to cause a reaction in a 5% CO2 incubator at 37° C. for 20 hours.
(§4) After the reaction, the cell fluid in each well was recovered, 10 mL of SM was added thereto, 200 μL per sample of CountBright Absolute Counting Beads, for flow cytometry (Molecular Probes) was added as control beads, and the fluid was centrifuged at 4° C. and 2000 rpm for 10 minutes, and then the supernatant was removed. The resultant was washed twice with SM, 10000 μg/mL of IgG from human serum (Sigma-Aldrich Co. LLC) diluted with SM was added at 300 μL/sample and suspended to cause a reaction at 4° C. for 30 minutes. […]
(§5) The cells were washed twice with SM, suspended by SM containing 1% of 7-AAD Staining Solution (BD Biosciences), allowed to stand at 4° C. for 10 minutes, and the fluorescent intensity was analyzed by flow cytometry (BD Biosciences, FACS CantoII).
(§6) Human eosinophils were detected as 7-AAD negative siglec8-PE positive fractions in granulocyte fractions of FSC-SSC deployment. Human basophils were detected as 7-AAD negative fractions, CD123-PC-Cy7 positive fractions, FcεRI-APC positive fractions in lymphocyte fractions of FSC-SSC deployment. The cell depletion activity was evaluated by analyzing the count number of each cell per a certain number of CountBright. […]

For series [3], the system named is human basophils. As to the kind of experiment: Basophil depletion (cytotoxic) activity in human peripheral blood cells, flow cytometry. The following applies: Example 8; 0.01-1000 ng/mL, 37° C., 20 hours; FIG. 3. On the procedure:
as §1, §2, §3, §4, §5, §6

In the case of `Cc1c(Cc2ccc3ccccc3n2)c2cc(F)ccc2n1CC(=O)O` [OC000459], the “inhibition of DKPGD2-dependent shape change of eosinophils (antagonist activity)” value in series [1] (antibody 10 μg/mL or small molecule 10 μM) is reported as “inhibited”.
With `CCCCCC(=O)CC[C@H]1C(=O)C[C@H](O)[C@@H]1C/C=C\CCCC(=O)O` [DKPGD2, 13, 14-dihydro-15-keto prostaglandin D2], the “shape change of eosinophils induced by ligand” value in series [1] (37° C., 60 minutes) was “induced shape change of eosinophils in a concentration-dependent manner”.

B1: LV0HV0: humanized Lym2 antibody, VL LV0 (SEQ ID NO: 33), VH HV0 (SEQ ID NO: 49) (antibody, V domains shown)
VH: EVQLVESGGGVVQPGRSLRLSCAASGFTFSNYYMAWVRQAPGKGLEWVATISYDGSSTYYRDSVKGRFTISRDNAKNSLYLQMNSLRAEDTAVYYCARHRGYYYSGAGYFDYWGQGTMVTVSS
VL: DIVMTQTPLSLPVTPGESASISCRSSQSLEYSDGYTYLEWYLQKPGQSPQVLIYGVSNRFSGVPDRFSGSGSGTDFTLKISRVEAEDVGVYYCFQATHDPLTFGQGTKLEIK
For B1, in series [2], the “cytotoxic activity against eosinophils” value is “comparable to the chimeric Lym2 antibody chLym2”. The “cytotoxic activity against basophils” value in series [3] is given as “comparable to the chimeric Lym2 antibody chLym2”.

B2: LV0HV2a: humanized Lym2 antibody, VL LV0 (SEQ ID NO: 33), VH HV2a (SEQ ID NO: 53) (antibody, V domains shown)
VH: EVQLVESGGGVVQPGRSLRLSCAASGFTFSNYYMAWVRQAPGKGLEWVATISYDGSSTYYRDSVKGRFTISRDNAKNSLYLQMNSLRAEDTATYYCARHRGYYYSGAGYFDYWGQGVMVTVSS
VL: DIVMTQTPLSLPVTPGESASISCRSSQSLEYSDGYTYLEWYLQKPGQSPQVLIYGVSNRFSGVPDRFSGSGSGTDFTLKISRVEAEDVGVYYCFQATHDPLTFGQGTKLEIK
Regarding B2, the “cytotoxic activity against eosinophils” value in series [2] is given as “comparable to the chimeric Lym2 antibody chLym2”. In addition, the “cytotoxic activity against basophils” value in series [3] was “comparable to the chimeric Lym2 antibody chLym2”.

The record behind these values is patent US10100120B2, “Antibody which specifically binds to human CRTH2” (KYOWA HAKKO KIRIN CO., LTD, priority 2015, dated 2018).
